How the values were obtained:
[1] = substrate: COc1ccc([N+](=O)[O-])cc1; experiment: cells, lysate or membranes; format: biochemical, Laodelphax striatellus; details: NADPH, 30 °C, 1 pmol P450, 0-100 µM substrate, CPR co-expressed
[2] = substrate: O=[N+]([O-])NC1=NCCN1Cc1ccc(Cl)nc1; experiment: substrate depletion, Sf9 microsomes; format: biochemical, Laodelphax striatellus; details: 0-50 µM substrate; CPR co-expressed

B1: CYP353D1v2 (Laodelphax striatellus) (protein)
chain: MVKINGKWLTKYFSTAKVKPYDEIPTLPKWPFLGHAYLFFPNGKYKLERLGDAILDLRRTLGNIFKLNLNGDDLVVSLNPDDARSMYTAEGKLPYRPSFPALANYRKNTFGSIGVVPGNGEEWLHYRKAVLPLLKSNIVVAYAEDHKLIASRFVDYIGRNRGRSNELNDVFNHLLKFAIEATSITCPGVLFNCLDESLDKSDVSNVVTKASVDFMEGMYRTLVEPPFWKMWKTKSYRKLEQSHTAIHRLIADGIEKTKEDLKNNPNKHPFMASLFENSTLSENEILVLAMEVFLGGLDATPTTLAMTLHYLAQNPEAQSKAFNEISSQKQLKYVEACLKETLRLAPSAGASSRYLAEEAVLSGYLVPANTLVAVFSPITSRDEKYFHSPLEFIPERWFRENKAMRHPFASIPFGFGARVCPGRHFVNQEMVIFLTEILRNFKLNSNNGQVGMIHRMNRIPDQEIAIFFNDR
notes: with NADPH--cytochrome P450 reductase
- Km [1]: 6.21 ± 0.65 µM
- Km [2]: 6.41 ± 1.27 µM
- kcat [2]: 0.001 ± 1.3e-05 s⁻¹

From PMC5751167, “Buprofezin Is Metabolized by CYP353D1v2, a Cytochrome P450 Associated with Imidacloprid Resistance in Laodelphax striatellus” (International Journal of Molecular Sciences, 2017)
